Columns and labels:
CCR2 = target: T1, CCR2 (Mus musculus, UniProt P51683); conditions: mouse models of multiple sclerosis, renal ischemia-reperfusion injury, ureteric obstruction, diabetic nephropathy; rat model of arthritis; cited from earlier work
T1 construct: host or cells: mouse models (and one rat model) in vivo

RAGE = experiment: Ang II-induced pro-inflammatory signalling (p65-NFκB expression) in AT1R-CHO / RAGE-AT1R-CHO cells; assay type: cell-based, human; conditions: pre-treatment with mCherry-S391A-RAGE362-404 0.4 ng/ml; FIG. 10G
murine SVEC = experiment: Induction of ICAM-1 by Ang II in murine SVEC transfected with RAGE constructs (RT-PCR); assay type: cell-based, mouse; conditions: transfected construct (FIG. 12)
Description: FIG. 12A. The effect of transfection of murine SVEC with RAGE or RAGE mutants on the induction of ICAM-1 by Ang II compared to vector alone (pc-Neo) as a control, as measured by RT-PCR. Data are mean±SEM; n=6-8 per group. * vs untreated control, # vs neo+Ang II, p<0.05.
FIG. 12B. The effect of transfection with truncated RAGE mutants on the induction of ICAM-1 by Ang II in murine SVEC to identify the smallest fragments with inhibitory activity. Data are mean±SEM; n=6-8 per group, * vs no treatment control, p<0.05.
FIG. 12D. The effect of transfection with single site-specific alanine or lysine mutants of RAGE370-390 on the induction of ICAM-1 by Ang II in murine SVEC. Data are mean±SEM; n=6-8 per group, * vs no treatment control, p<0.05.
(§1) Cellular Expression of Pro-Inflammatory Markers and Mediators by Quantitative Real-Time PCR
After 2 hours of exposure to Ang II (1 μM) or the RAGE ligand, S100A8/A9 (5 ng/ml) cells were placed in Trizol, mRNA extracted and cDNA synthesized. Changes in the gene expression of the NFκB subunit, p65 (RelA) or NFκB-activated target genes (e.g ICAM-1, VCAM-1) were estimated by quantitative real-time RT-PCR, performed using the TaqMan system based on real-time detection of accumulated fluorescence (ABI Prism 7700, Perkin-Elmer Inc, PE Biosystems, Foster City, CA, USA). […]

CCR4 = target: T2, CCR4 (Homo sapiens, UniProt P51679); experiment: Receptor-HIT BRET, β-arrestin2/Venus with RAGE/Rluc8 and CCR4; assay type: cell-based
T2 construct: expressed in transfected cells; host or cells: HEK293FT, transient
T2 sequence (P51679 whole entry): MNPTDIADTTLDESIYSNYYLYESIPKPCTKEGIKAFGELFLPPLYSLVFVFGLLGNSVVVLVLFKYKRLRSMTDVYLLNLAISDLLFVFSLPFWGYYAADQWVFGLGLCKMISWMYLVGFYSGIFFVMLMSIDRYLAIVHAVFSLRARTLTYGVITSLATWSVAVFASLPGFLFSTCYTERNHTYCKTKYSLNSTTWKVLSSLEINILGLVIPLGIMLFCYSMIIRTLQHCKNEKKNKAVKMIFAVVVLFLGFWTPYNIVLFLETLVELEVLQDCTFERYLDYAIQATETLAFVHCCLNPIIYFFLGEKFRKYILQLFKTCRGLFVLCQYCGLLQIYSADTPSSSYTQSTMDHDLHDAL
T2 sequence (P32121 whole entry partner): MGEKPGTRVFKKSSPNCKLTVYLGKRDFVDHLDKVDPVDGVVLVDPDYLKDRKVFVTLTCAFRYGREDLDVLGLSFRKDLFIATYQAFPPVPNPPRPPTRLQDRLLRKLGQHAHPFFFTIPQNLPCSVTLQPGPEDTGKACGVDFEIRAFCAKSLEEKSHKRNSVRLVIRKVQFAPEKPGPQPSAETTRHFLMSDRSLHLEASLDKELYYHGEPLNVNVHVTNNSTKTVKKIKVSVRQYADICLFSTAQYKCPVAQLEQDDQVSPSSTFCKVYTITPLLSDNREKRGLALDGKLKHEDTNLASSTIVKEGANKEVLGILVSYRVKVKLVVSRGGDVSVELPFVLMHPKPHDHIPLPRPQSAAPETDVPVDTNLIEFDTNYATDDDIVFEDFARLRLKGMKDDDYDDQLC
Description: Bioluminescence Resonance Energy Transfer (BRET)
BRET is an established technology for studying protein-protein proximity in live cells, particularly involving GPCRs (Pfleger and Eidne, 2006). One protein of interest was linked to a bioluminescent donor enzyme, Rluc8, a variant of Renilla luciferase, and a second linked to an acceptor fluorophore, Venus, a variant of green fluorescent protein. If in close proximity (<10 nm), energy resulting from the rapid oxidation of a cell-permeable coelenterazine substrate by the donor can transfer to the acceptor, which in turn fluoresces at a longer characteristic wavelength.
Plasmids were transiently co-expressed in human embryonic kidney (HEK) 293FT cells and BRET measurements taken at 37° C. using a POLARstar Omega or LUMIstar plate reader (BMG Labtech, Mornington, Victoria, Australia) with 460-490 nm (‘donor emission’) and 520-550 nm (‘acceptor emission’) filters, or a VICTOR Light plate reader (Perkin Elmer, Glen Waverley, Victoria, Australia) with 400-475 nm (‘donor emission’) and 520-540 nm (‘acceptor emission’) filters, or a CLARIOstar plate reader (BMG Labtech, Mornington, Victoria, Australia) with 420-480 nm (‘donor emission’) and 520-620 nm (‘acceptor emission’) filters.
The BRET ratio was calculated by subtracting the ratio of ‘acceptor emission’ over ‘donor emission’ for a cell sample expressing Rluc8-tagged protein alone from the same ratio for a cell sample expressing both Rluc8 and Venus-tagged proteins. Alternatively, the ligand-induced BRET signal was calculated by subtracting the ratio of ‘acceptor emission’ over ‘donor emission’ for a vehicle-treated cell sample from the same ratio for a second aliquot of the same cells treated with agonist.
For BRET kinetic assays, the final pre-treatment reading is presented at the zero time point (time of ligand/vehicle addition). For the saturation assay, fluorescence after light excitation was measured on an EnVision 2102 multi-label plate reader (PerkinElmer, Glen Waverley, Victoria, Australia) using a 485/14 excitation filter, 535/25 emission filter and D505 mirror. […]

[1] = system: primary murine aortic endothelial cells (PMAEC); experiment: Expression of pro-inflammatory markers by real-time RT-PCR in primary murine aortic endothelial cells; assay type: cell-based, mouse
Experimental: Primary aortic endothelial cells (PMAEC) were isolated from the aortae of (wild-type) C57bl6 mice and AGER KO mice and cultured in Dulbecco's modified Eagle's medium (DMEM)/F12 endothelial cell growth supplement (ECGS) supplemented media. Chinese Hamster Ovary (CHO) cells were cultured using F12 media (10% FCS with 2 mM glutamine). Human microvascular endothelial cells (HMEC) were cultured in MCDB 131 medium (10% FCS with 10 mM glutamine, EGF and hydrocortisone).
as §1
(§2) After 2 hours of exposure to Ang II (1 μM) or the RAGE ligand, S100A8/A9 (5 ng/ml) cells were placed in Trizol, mRNA extracted and cDNA synthesized. Changes in the gene expression of the NFκB subunit, p65 (RelA) or NFκB-activated target genes (e.g ICAM-1, VCAM-1) were estimated by quantitative real-time RT-PCR, performed using the TaqMan system based on real-time detection of accumulated fluorescence (ABI Prism 7700, Perkin-Elmer Inc, PE Biosystems, Foster City, CA, USA). Gene expression was normalized to 18S mRNA and reported as fold change compared to the level of expression in untreated control mice/cells, which were given an arbitrary value of 1.
Selective Silencing of Gene Expression Using siRNA
PMAEC from C57b/6 mice were also transfected with siRNA to RAGE (2 nM) Ambion, ID:s62119), p65 (RelA) (10 nM; Ambion, ID:s72857), MyD88 (10 nM; Ambion. ID:s201719), PKCζ (10 nM; Ambion, ID:s71716), IQGAP-1, Ambion, ID:s78119), Diaph1 (10 nM; sense5′-[…], antisense 3′-[…]; Invitrogen) or scrambled control #1 (2 nM or 10 nM; Ambion) using Lipofectamine RNAiMAX (Invitrogen) as per manufacturer's instructions. Cells were allowed to recover in media containing 10% FBS for 16 hours prior to treatment with 1 μM Ang II or 5 ng/ml of the RAGE ligand, S100A8/A9, as a signalling control.

[2] = system: RAGE ligand-dependent activation of RAGE; experiment: S100A8/A9-induced NFκB activation (p65 gene expression) in CHO cells expressing RAGE constructs; assay type: cell-based, human; conditions: CHO cells expressing the RAGE polypeptide, 5 ng/ml
Experimental: Generation of Transgenic Chinese Hamster Ovary Cells
100 ng of AT1R-Rluc8 construct was transfected into CHO cells using Lipofectamine 2000 (Thermo). Stable transfectants were selected using G418. AT1R—CHO were then transiently transfected with RAGE constructs using Lipofectamine 2000 (Invitrogen) and incubated for 16 h. The Homo sapiens AGER transcript variant 1 coding sequence (NM_001136) was synthesised and cloned between the NheI and XbaI sites of pCIneo (Promega) to generate the vector pCIneo-RAGE. This plasmid was then used to generate a library of mutant AGER clones (NP_001127). Primers 1-RAGE-SP-5′ and mCherry-XhoI-NotI-3′ were used to amplify the coding sequence of mCherry from the vector pmCherry-C1. The resultant PCR product was then used as template for a second PCR using primers 2-RAGE-SP-5′ and mCherry-XhoI-NotI-3′. The PCR product generated was digested with NheI and NotI and inserted between the NheI and NotI sites of pCIneo to generate pCIneo-SP-mCherry. The sequence of the insert was confirmed by DNA sequencing (Micromon, Monash University). […]
as §1, §2
To measure the induction of NFκB activity by 1 μM Ang II, or 5 ng/ml of the RAGE-ligand S100A8/A9 as a signalling control, AT1R—CHO cells were transfected with 0.4 μg of plasmids encoding NFκB-SEAP or β-galactosidase (β-Gal) using Lipofectamine 2000 (Invitrogen) as per manufacturer's instructions. After 24 hours, cells transfected with each plasmid combination were then treated with Ang II (1 μM) or left untreated and incubated for 4 hours before cell supernatants and cell lysates were collected. Cell supernatants were analysed using a chemiluminescent SEAP reporter gene assay (Roche Applied Science) to detect SEAP production after treatment. To control for transfection efficiency, cell lysates were assayed for β-Gal using a commercially available kit (Promega).

T1 sequence (P51683 whole entry, the tested form may be a part): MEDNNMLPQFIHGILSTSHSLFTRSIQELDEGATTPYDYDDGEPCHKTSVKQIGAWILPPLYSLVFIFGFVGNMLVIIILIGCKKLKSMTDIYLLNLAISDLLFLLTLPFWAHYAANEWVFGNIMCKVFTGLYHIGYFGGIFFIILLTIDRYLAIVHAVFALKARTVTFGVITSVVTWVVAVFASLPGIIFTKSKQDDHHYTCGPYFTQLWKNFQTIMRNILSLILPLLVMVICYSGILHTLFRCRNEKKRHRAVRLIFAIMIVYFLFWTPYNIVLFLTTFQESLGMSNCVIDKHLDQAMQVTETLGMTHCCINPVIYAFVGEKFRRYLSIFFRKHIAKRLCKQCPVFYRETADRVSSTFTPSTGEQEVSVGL

CCO[C@H]1CN(C2CCC(O)(c3ccc4c(c3)OCO4)CC2)C[C@@H]1NC(=O)CNC(=O)c1cccc(C(F)(F)F)c1 (stereo partly shown) [INCB3344]
inflammation (CCR2): suppress inflammation

Cc1ccc2c(c1)C1(CCN(CCc3nc(-c4ccccc4)oc3C)CC1)OC(=O)N2 [RS-504393]
inflammation (CCR2): suppress inflammation

O=C(O)C[CH2][Ge](=[O])[O][Ge](=[O])[CH2]CC(=O)O [propagermanium, 3-[(2-Carboxyethyl-oxogermyl)oxy-oxogermyl]propanoic acid]
inflammation (CCR2): suppress inflammation

R366A-Q367A-RAGE362-404: mutated RAGE cytosolic tail peptide in which the charged patch is altered (LWQRAARRGEERKAPENQEEEEERAELNQSEEPEAGESSTGGP; cytosolic tail peptide; UniProt Q15109 362-404, looked up, variant R366A Q367A)
overcoming the inhibition of transactivation conferred by mCherry-S391A-RAGE362-404 (RAGE): able to overcome the inhibition

RAGE370-404: N-truncated RAGE peptide without the charged patch Diaph1 binding domain (GEERKAPENQEEEEERAELNQSEEPEAGESSTGGP; UniProt Q15109 370-404, looked up, fragment)
overcoming the inhibition of transactivation conferred by mCherry-S391A-RAGE362-404 (RAGE): able to overcome the inhibition

RAGE385-390: N-truncated RAGE construct eliminating both 380 and 384 (RAELNQ; UniProt Q15109 385-390, looked up, fragment)
inhibition of Ang II-induced ICAM-1 (acting on wild type RAGE) (murine SVEC): loss of the modulatory actions

B1: CCL22: chemokine ligand used to activate CCR4 (protein)
chain: GPYGANMEDSVCCRDYVRYRLPLRVVKHFYWTSDSCPRPGVVLLTFRDKEICADPRVPWVKMILNKLSQ
recruitment of βarrestin2/Venus to CCR4/Rluc8 (CCR4; control): recruitment
recruitment of β-arrestin2/Venus proximal to RAGE/Rluc8 (CCR4; in the presence of CCR4): not and Lack of
BRET signal between Gαi/Nluc and Gγ2/Venus (CCR4; untagged CCR4 co-expressed): observed

B2: S100A8/A9: RAGE ligand (protein)
chain 1: MLTELEKALNSIIDVYHKYSLIKGNFHAVYRDDLKKLLETECPQYIRKKGADVWFKELDINTDGAVNFQEFLILVIKMGVAAHKKSHEESHKE
chain 2: MTCKMSQLERNIETIINTFHQYSVKLGHPDTLNQGEFKELVRKDLQNFLKKENKNEKVIEHIMEDLDTNADKQLSFEEFIMLMARLTWASHEKMHEGDEGPGHHHKPGLGEGTP
induction of pro-inflammatory genes ([1]; PMAEC from AGER KO mice): does not lead to the induction
expression of pro-inflammatory genes (ICAM-1, VCAM-1, TNFα, MCP-1) ([1]; PMAEC from C57bl6 mice, Ang II 1 μM or S100A8/A9): induction
NFκB-dependent induction of VCAM-1 gene expression ([1]; PMAEC with AGER expression silenced using siRNA): preventing
activation of p65-NFκB [2]: able to induce activation
